Laboratory results published in paper PMC5777638 (Nature, 2018).

T1: RNA polymerase III subunit C128 (Saccharomyces cerevisiae, UniProt P22276 1-1149)
T1 sequence (looked up): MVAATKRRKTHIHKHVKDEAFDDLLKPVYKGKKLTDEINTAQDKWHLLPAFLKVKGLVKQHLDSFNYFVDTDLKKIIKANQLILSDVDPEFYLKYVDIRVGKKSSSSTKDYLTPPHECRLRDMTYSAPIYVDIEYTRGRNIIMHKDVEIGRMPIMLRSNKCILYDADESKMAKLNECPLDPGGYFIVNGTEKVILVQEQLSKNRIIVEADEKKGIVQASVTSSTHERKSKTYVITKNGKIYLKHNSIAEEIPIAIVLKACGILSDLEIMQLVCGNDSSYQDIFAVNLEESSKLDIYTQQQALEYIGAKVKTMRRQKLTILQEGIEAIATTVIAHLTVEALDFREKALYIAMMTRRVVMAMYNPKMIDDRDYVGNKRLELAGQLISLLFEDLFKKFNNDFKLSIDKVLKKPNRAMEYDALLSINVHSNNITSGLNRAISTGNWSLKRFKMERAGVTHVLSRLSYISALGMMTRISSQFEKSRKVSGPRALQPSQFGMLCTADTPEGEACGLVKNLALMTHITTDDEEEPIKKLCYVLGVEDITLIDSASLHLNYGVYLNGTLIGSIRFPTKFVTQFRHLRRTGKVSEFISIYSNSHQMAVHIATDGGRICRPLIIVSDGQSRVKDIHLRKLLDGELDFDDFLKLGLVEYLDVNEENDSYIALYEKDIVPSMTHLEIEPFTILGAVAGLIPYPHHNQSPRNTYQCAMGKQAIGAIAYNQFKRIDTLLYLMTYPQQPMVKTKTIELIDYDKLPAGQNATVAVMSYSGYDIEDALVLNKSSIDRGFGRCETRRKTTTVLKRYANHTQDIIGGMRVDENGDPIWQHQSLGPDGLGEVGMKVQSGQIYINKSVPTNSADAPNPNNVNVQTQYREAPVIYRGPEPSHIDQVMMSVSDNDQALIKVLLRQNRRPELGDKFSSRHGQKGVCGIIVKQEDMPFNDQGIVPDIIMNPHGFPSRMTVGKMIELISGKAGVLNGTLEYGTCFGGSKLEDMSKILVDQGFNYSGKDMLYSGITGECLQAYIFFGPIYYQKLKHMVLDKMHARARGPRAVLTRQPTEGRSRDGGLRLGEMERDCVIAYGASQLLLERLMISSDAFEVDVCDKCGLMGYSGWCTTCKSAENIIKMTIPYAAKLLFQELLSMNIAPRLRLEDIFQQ

B1: RNA polymerase III subunit C34 (natural protein, Saccharomyces cerevisiae, UniProt P32910 1-317, looked up)
chain: MSGMIENGLQLSDNAKTLHSQMMSKGIGALFTQQELQKQMGIGSLTDLMSIVQELLDKNLIKLVKQNDELKFQGVLESEAQKKATMSAEEALVYSYIEASGREGIWSKTIKARTNLHQHVVLKCLKSLESQRYVKSVKSVKFPTRKIYMLYSLQPSVDITGGPWFTDGELDIEFINSLLTIVWRFISENTFPNGFKNFENGPKKNVFYAPNVKNYSTTQEILEFITAAQVANVELTPSNIRSLCEVLVYDDKLEKVTHDCYRVTLESILQMNQGEGEPEAGNKALEDEEEFSIFNYFKMFPASKHDKEVVYFDEWTI

Key:
[1] = biological target: T1, RNA polymerase III subunit C128; assay: cryo-EM structure
[2] = biological target: B1; assay: cryo-EM structure

binding result [1] | binding result [2] | Binder
binds |  | B1
 | binds | RNA polymerase III subunit C37 (natural protein, Saccharomyces cerevisiae, UniProt P36121 1-282, looked up) MSIDNKLFVTEEDEEDRTQDRADVEDESNDIDMIADENGTNSAIANEQEEKSEEVKAEDDTGEEEEDDPVIEEFPLKISGEEESLHVFQYANRPRLVGRKPAEHPFISAARYKPKSHLWEIDIPLDEQAFYNKDKAESEWNGVNVQTLKGVGVENNGQYAAFVKDMQVYLVPIERVAQLKPFFKYIDDANVTRKQEDARRNPNPSSQRAQVVTMSVKSVNDPSQNRLTGSLLAHKVADEEANIELTWAEGTFEQFKDTIVKEAEDKTLVALEKQEDYIDNLV
